# Source: paper PMC5274527
# Key:
# [1] = target: human red cone opsin with C-terminal 1D4 tag (pcDNA3.1(+), without eGFP) (human) (UniProt P04000); test: cross-linking
# [2] = target: human red cone opsin fused at its C-terminus to eGFP or mCherry (human) (UniProt P04000); test: FRET or BRET
# [3] = target: human red cone opsin fused at its C-terminus to eGFP or mCherry (human) (UniProt P04000); test: fluorescence correlation spectroscopy
# [4] = target: human red cone opsin fused at its C-terminus to eGFP or mCherry (human) (UniProt P04000); test: pulsed-interleaved excitation fluorescence cross-correlation spectroscopy
Substance,percent DSG dimers (of monomer plus dimer bands) [1],FRET efficiency (average) [2],FRET efficiency (highest single-cell value) [2],average molecular brightness [3],stoichiometry N [3],median fc (relative cross-correlation) [4]
"human red cone opsin with C-terminal 1D4 tag (pcDNA3.1(+), without eGFP) (from UniProt P04000 1-352) (receptor)",79%,–,–,–,–,–
human red cone opsin fused at its C-terminus to eGFP or mCherry (from UniProt P04000 1-352) (receptor),–,3.6%,12%,738 cpsm,2,0.19
